Test results from PMC9969694, “YULINK regulates vascular formation in zebrafish and HUVECs” (Biological Research, 2023).
One block for each molecule: values may come before it.

Legend:
Assay in all cases: FRET or BRET; FLIM-FRET in HEK-293 T cells 48 h after co-transfection; AcGFP donor on YULINK (full-length or truncated), DsRed acceptor on the partner; mean fluorescence lifetime τ of AcGFP and FRET efficiency E; AcGFP-YULINK alone about 2.71 ns
AcGFP-YULINKΔN (human) = molecular target: AcGFP-YULINKΔN (human)
AcGFP-YULINKΔC (human) = molecular target: AcGFP-YULINKΔC (human)
[1] = molecular target: T1, AcGFP-YULINK (full-length) (human, UniProt Q9NXC5-1 1-875); settings: partners not purified
T1 construct: YULINK, full-length, conjugated with AcGFP; also called full-length AcGFP-YULINK; source: HEK-293 T, co-transfected, in live cells
T1 sequence (looked up): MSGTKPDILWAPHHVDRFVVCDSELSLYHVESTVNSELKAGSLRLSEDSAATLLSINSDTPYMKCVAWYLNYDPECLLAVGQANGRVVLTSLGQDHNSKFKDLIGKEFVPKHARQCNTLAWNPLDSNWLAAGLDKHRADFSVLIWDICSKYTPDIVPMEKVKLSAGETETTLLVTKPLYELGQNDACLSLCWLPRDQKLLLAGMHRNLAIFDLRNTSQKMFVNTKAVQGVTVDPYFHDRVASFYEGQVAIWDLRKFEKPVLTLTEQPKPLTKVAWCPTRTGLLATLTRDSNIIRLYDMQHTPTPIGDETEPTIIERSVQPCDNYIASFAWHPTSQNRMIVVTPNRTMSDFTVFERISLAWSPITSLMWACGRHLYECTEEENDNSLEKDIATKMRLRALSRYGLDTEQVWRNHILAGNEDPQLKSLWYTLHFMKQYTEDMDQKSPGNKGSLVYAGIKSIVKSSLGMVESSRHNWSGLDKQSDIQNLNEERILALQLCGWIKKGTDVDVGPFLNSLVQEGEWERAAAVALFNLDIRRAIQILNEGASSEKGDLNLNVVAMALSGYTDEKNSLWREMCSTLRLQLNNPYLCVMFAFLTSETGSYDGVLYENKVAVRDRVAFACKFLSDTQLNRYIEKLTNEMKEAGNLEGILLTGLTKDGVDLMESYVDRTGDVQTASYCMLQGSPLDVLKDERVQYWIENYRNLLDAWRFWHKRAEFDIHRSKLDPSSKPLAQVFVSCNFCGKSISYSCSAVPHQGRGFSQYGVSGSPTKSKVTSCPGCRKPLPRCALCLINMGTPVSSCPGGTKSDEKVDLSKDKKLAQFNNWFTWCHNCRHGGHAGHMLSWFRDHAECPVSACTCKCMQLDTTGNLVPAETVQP

Molecule: DsRed-TICAM2 (from UniProt Q86XR7 1-235) (natural protein)
- FRET efficiency E (AcGFP-YULINKΔC (human)): 17.7%
- mean fluorescence lifetime τ of the donor (AcGFP-YULINKΔC (human)): 2.23 ns
- FRET efficiency E (AcGFP-YULINKΔN (human)): 19.6%
- mean fluorescence lifetime τ of the donor (AcGFP-YULINKΔN (human)): 2.18 ns

B2: DsRed-RAB33B (natural protein, human, UniProt Q9H082 1-229, looked up)
chain: MAEEMESSLEASFSSSGAVSGASGFLPPARSRIFKIIVIGDSNVGKTCLTYRFCAGRFPDRTEATIGVDFRERAVEIDGERIKIQLWDTAGQERFRKSMVQHYYRNVHAVVFVYDMTNMASFHSLPSWIEECKQHLLANDIPRILVGNKCDLRSAIQVPTDLAQKFADTHSMPLFETSAKNPNDNDHVEAIFMTLAHKLKSHKPLMLSQPPDNGIILKPEPKPAMTCWC
notes: RAB33B conjugated with DsRed; source: HEK-293 T, co-transfected, in live cells
- FRET efficiency E [1]: 8.1%
- mean fluorescence lifetime τ of the donor [1]: 2.49 ns

Next, values leading:

- FRET efficiency E (AcGFP-YULINKΔN (human)): 36.5%
- mean fluorescence lifetime τ of the donor (AcGFP-YULINKΔN (human)): 1.72 ns
Molecule: DsRed-RAB33B (from UniProt Q9H082 1-229) (natural protein)

- FRET efficiency E [1]: 11.4%
- mean fluorescence lifetime τ of the donor [1]: 2.4 ns
B1: DsRed-EPS15 (natural protein, human, UniProt P42566 1-896, looked up)
chain: MAAAAQLSLTQLSSGNPVYEKYYRQVDTGNTGRVLASDAAAFLKKSGLPDLILGKIWDLADTDGKGILNKQEFFVALRLVACAQNGLEVSLSSLNLAVPPPRFHDTSSPLLISGTSAAELPWAVKPEDKAKYDAIFDSLSPVNGFLSGDKVKPVLLNSKLPVDILGRVWELSDIDHDGMLDRDEFAVAMFLVYCALEKEPVPMSLPPALVPPSKRKTWVVSPAEKAKYDEIFLKTDKDMDGFVSGLEVREIFLKTGLPSTLLAHIWSLCDTKDCGKLSKDQFALAFHLISQKLIKGIDPPHVLTPEMIPPSDRASLQKNIIGSSPVADFSAIKELDTLNNEIVDLQREKNNVEQDLKEKEDTIKQRTSEVQDLQDEVQRENTNLQKLQAQKQQVQELLDELDEQKAQLEEQLKEVRKKCAEEAQLISSLKAELTSQESQISTYEEELAKAREELSRLQQETAELEESVESGKAQLEPLQQHLQDSQQEISSMQMKLMEMKDLENHNSQLNWCSSPHSILVNGATDYCSLSTSSSETANLNEHVEGQSNLESEPIHQESPARSSPELLPSGVTDENEVTTAVTEKVCSELDNNRHSKEEDPFNVDSSSLTGPVADTNLDFFQSDPFVGSDPFKDDPFGKIDPFGGDPFKGSDPFASDCFFRQSTDPFATSSTDPFSAANNSSITSVETLKHNDPFAPGGTVVAASDSATDPFASVFGNESFGGGFADFSTLSKVNNEDPFRSATSSSVSNVVITKNVFEETSVKSEDEPPALPPKIGTPTRPCPLPPGKRSINKLDSPDPFKLNDPFQPFPGNDSPKEKDPEIFCDPFTSATTTTNKEADPSNFANFSAYPSEEDMIEWAKRESEREEEQRLARLNQQEQEDLELAIALSKSEISEA
notes: EPS15 conjugated with DsRed; also called DsRed-ESP15; source: HEK-293 T, co-transfected, in live cells
